These results are taken from ChEMBL document CHEMBL1123068, “2-Fluoroformycin and 2-aminoformycin. Synthesis and biological activity” (J Med Chem, 1985).

Substrate in data set [1]: Nc1nc(F)nc2c1ncn2[C@@H]1O[C@H](CO)[C@@H](O)[C@@H]1O
Kind of data set: Kinetic parameter was determined against adenosine deaminase expressed as Km.

Substrate in data set [2]: Nc1nc(F)nc2c1ncn2[C@@H]1O[C@H](CO)[C@@H](O)[C@@H]1O
Kind of data set: (§1) Kinetic parameter was determined against adenosine deaminase expressed as Vmax.

Substrate in data set [3]: Nc1ncnc2c1ncn2[C@@H]1O[C@H](CO)[C@@H](O)[C@H]1O
Described as §1.

Substrate in data set [4]: Nc1nc(N)c2ncn([C@@H]3O[C@H](CO)[C@@H](O)[C@H]3O)c2n1
The description is as §1.

B1: Adenosine deaminase (Bos taurus), P56658 (protein)
chain: MAQTPAFNKPKVELHVHLDGAIKPETILYYGRKRGIALPADTPEELQNIIGMDKPLSLPEFLAKFDYYMPAIAGCREAVKRIAYEFVEMKAKDGVVYVEVRYSPHLLANSKVEPIPWNQAEGDLTPDEVVSLVNQGLQEGERDFGVKVRSILCCMRHQPSWSSEVVELCKKYREQTVVAIDLAGDETIEGSSLFPGHVKAYAEAVKSGVHRTVHAGEVGSANVVKEAVDTLKTERLGHGYHTLEDATLYNRLRQENMHFEVCPWSSYLTGAWKPDTEHPVVRFKNDQVNYSLNTDDPLIFKSTLDTDYQMTKNEMGFTEEEFKRLNINAAKSSFLPEDEKKELLDLLYKAYGMPSPASAEQCL
B1: the Km in data set [1] was found to be 81 µM. The Vmax in data set [2] is 0.78 M/min/mg. Further, the Vmax (µmol min-1 mg-1) in data set [3] came out at 435; in data set [4] it was 119.

In general, Km refers to the concentration of substrate that gives half-maximal velocity. A word on the Vmax: it is the top rate of the reaction or transport when substrate is in excess.
